# T1: TBL2 (human, UniProt Q9Y4P3 1-447)
# T1 construct: also called NP_036585.1
# T1 sequence (looked up): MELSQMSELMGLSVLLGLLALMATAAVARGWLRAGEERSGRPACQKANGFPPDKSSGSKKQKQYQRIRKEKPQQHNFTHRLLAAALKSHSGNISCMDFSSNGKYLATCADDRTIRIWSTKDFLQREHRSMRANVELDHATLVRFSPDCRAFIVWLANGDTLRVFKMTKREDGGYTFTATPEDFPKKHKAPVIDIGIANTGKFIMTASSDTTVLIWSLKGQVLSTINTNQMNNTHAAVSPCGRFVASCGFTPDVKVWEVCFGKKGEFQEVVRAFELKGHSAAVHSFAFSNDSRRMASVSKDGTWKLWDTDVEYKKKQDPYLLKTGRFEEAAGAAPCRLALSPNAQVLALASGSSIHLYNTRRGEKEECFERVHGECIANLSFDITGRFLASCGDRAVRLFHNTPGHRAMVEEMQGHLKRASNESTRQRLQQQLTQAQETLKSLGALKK
# T2: YTHDF2 (human, UniProt Q9Y5A9 2-579)
# T2 construct: also called NP_057342.2
# T2 sequence (looked up): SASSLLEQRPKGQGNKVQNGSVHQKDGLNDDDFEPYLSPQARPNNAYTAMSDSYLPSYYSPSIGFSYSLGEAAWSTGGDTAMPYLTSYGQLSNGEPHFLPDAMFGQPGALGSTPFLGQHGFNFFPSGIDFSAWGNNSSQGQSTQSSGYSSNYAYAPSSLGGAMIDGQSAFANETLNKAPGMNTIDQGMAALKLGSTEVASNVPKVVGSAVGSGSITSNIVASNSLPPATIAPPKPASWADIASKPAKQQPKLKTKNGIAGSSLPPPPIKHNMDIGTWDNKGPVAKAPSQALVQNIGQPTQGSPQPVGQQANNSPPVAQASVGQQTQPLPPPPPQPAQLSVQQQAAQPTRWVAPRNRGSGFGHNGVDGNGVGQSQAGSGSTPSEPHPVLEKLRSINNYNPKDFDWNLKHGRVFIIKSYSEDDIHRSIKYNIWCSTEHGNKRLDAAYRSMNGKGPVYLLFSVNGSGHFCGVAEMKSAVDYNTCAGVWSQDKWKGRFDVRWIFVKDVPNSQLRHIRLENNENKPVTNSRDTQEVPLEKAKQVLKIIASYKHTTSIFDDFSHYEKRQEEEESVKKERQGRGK
# T3: RBM14 (human, UniProt Q96PK6 1-669)
# T3 construct: also called XP_006319.1
# T3 sequence (looked up): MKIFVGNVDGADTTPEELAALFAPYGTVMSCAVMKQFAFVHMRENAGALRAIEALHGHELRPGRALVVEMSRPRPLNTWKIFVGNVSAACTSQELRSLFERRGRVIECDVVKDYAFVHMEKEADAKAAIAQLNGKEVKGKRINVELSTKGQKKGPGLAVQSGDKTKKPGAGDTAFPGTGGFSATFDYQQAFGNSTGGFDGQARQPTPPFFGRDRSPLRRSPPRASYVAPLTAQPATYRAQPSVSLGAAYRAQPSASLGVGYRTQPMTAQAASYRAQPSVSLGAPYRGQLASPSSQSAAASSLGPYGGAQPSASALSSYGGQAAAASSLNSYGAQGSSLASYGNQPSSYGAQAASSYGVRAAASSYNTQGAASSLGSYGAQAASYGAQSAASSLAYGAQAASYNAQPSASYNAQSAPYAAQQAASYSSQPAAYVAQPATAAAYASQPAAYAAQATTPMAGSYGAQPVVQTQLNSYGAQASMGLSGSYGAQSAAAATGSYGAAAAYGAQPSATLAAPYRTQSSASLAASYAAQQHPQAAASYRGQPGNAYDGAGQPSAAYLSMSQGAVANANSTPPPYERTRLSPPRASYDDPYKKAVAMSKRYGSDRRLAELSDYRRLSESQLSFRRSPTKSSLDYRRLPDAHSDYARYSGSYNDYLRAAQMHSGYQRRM
# B1: N-terminal FLAG tagged B3GNT2 (enzyme, human, UniProt Q9NY97 1-397, looked up)
# chain: MSVGRRRIKLLGILMMANVFIYFIMEVSKSSSQEKNGKGEVIIPKEKFWKISTPPEAYWNREQEKLNRQYNPILSMLTNQTGEAGRLSNISHLNYCEPDLRVTSVVTGFNNLPDRFKDFLLYLRCRNYSLLIDQPDKCAKKPFLLLAIKSLTPHFARRQAIRESWGQESNAGNQTVVRVFLLGQTPPEDNHPDLSDMLKFESEKHQDILMWNYRDTFFNLSLKEVLFLRWVSTSCPDTEFVFKGDDDVFVNTHHILNYLNSLSKTKAKDLFIGDVIHNAGPHRDKKLKYYIPEVVYSGLYPPYAGGGGFLYSGHLALRLYHITDQVHLYPIDDVYTGMCLQKLGLVPEKHKGFRTFDIEEKNKNNICSYVDLMLVHSRKPQEMIDIWSQLQSAHLKC
# notes: FLAG-tagged ORF overexpressed in cells; pulled down from lysate with mouse anti-FLAG; also called N-FLAG B3GNT2; N-term FLAG; not shown: N-terminal FLAG tag
# B2: N-terminal FLAG tagged B3GNT2 (enzyme, human, UniProt Q9NY97 1-397, looked up)
# chain: B1 chain
# notes: FLAG-tagged ORF overexpressed in A375 cells; pulled down from the lysate with mouse anti-FLAG; also called N-FLAG B3GNT2; N-term FLAG; not shown: N-terminal FLAG tag
# How the values were obtained:
# Assay in all cases: co-IP with anti-FLAG, N-FLAG B3GNT2, mass spectrometry
# TBL2 = target: T1, TBL2
# YTHDF2 = target: T2, YTHDF2
# PRRC2C = target: T4, PRRC2C (human, UniProt Q9Y520-4 1-2817, limits assumed)
# T4 construct: also called NP_055987.2 (+10)
# T4 sequence (Q9Y520 other isoform, or with tags, fused parts or gaps limits assumed): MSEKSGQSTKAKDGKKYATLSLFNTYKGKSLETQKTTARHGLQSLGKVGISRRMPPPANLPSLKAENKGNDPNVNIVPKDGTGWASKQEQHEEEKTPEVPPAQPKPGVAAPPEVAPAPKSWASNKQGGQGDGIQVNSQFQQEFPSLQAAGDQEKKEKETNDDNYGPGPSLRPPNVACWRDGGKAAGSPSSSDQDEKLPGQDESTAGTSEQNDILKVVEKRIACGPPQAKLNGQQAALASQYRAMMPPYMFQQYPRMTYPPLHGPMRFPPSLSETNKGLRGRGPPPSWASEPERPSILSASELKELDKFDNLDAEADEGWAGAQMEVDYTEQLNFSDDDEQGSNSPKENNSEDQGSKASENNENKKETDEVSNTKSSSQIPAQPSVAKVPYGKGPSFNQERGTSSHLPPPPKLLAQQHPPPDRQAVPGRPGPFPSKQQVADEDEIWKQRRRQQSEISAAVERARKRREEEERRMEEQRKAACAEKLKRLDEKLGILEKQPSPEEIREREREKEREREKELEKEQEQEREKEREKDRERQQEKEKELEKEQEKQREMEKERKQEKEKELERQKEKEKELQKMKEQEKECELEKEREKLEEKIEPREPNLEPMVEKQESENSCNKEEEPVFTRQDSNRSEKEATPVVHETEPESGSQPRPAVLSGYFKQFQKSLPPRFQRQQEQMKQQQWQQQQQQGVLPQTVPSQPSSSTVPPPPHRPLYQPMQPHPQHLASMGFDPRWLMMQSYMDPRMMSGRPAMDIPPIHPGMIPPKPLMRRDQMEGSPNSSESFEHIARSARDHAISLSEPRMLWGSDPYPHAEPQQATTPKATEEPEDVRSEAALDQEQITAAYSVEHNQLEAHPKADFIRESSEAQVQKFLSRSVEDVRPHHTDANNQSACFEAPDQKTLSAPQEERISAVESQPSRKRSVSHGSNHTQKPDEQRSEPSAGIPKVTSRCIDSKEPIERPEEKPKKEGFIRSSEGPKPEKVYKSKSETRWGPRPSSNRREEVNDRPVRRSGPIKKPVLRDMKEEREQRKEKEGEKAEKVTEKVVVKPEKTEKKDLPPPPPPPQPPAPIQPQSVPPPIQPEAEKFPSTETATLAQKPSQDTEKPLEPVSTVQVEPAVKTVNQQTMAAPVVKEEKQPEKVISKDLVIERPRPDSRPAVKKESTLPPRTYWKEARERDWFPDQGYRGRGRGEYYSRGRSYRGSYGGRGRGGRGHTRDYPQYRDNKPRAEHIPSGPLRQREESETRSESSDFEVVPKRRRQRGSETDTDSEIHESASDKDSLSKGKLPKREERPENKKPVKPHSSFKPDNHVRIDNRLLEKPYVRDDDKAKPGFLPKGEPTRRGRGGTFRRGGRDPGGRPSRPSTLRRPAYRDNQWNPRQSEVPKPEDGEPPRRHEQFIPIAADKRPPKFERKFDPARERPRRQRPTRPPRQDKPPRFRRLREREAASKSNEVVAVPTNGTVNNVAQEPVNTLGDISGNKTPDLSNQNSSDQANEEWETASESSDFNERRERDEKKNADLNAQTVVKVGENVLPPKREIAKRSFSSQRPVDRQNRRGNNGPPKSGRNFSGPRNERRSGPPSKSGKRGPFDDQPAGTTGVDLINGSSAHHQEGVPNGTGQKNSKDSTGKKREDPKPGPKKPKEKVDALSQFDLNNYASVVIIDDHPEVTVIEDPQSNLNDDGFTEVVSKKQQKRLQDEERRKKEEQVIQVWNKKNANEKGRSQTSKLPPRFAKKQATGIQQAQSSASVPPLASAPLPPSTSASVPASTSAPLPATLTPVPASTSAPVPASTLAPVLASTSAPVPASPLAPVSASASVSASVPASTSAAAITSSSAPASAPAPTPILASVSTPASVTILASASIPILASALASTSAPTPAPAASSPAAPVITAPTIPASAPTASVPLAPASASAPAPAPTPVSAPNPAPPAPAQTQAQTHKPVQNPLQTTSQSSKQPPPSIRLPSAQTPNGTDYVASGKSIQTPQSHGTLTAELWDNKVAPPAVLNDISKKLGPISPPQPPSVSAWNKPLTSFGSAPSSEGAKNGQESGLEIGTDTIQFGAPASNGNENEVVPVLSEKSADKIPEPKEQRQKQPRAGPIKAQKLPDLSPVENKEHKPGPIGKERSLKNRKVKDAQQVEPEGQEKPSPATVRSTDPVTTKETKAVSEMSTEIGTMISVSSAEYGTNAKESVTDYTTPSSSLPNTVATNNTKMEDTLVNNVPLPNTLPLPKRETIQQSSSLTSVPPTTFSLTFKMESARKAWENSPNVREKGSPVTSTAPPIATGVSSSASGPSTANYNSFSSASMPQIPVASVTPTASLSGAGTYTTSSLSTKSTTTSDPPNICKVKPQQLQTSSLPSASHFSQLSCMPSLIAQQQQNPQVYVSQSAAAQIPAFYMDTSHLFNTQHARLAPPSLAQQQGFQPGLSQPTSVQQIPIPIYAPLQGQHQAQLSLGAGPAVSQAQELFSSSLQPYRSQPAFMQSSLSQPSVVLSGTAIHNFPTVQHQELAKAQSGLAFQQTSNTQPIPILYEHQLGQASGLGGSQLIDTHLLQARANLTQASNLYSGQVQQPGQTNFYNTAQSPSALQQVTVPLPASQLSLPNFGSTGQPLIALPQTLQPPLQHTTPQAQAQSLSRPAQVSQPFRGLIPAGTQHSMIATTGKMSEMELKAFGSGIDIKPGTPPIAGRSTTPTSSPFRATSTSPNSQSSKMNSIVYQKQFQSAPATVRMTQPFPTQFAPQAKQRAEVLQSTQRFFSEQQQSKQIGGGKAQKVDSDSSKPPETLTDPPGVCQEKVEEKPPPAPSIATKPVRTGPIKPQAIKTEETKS
# RPS20 = RPS20 (human, UniProt P60866 2-119)
# RBM14 = target: T3, RBM14
binder,measurement,setting,value
B1,co-IP mass spectrometry count,TBL2,0
same,co-IP mass spectrometry count,YTHDF2,5
B2,"co-IP/MS count, N-term FLAG",PRRC2C,6
same,"co-IP/MS count, N-term FLAG",RPS20,4
same,"co-IP/MS count, N-term FLAG",RBM14,3
